Data published in patent US7026443.
Read-outs that look alike come from different tables or passages of the source.

Experiments:
[1] = target: purified HLA-A*0201 molecules (human)
[2] = target: HLA-A*0101 (human)
[3] = target: HLA-A*0201 (human); test: competition with a 125I-labeled standard peptide for purified HLA-A*0201, gel filtration; ratio to the standard peptide
[4] = target: HLA-A*0301 (human); test: competition with 125I-labelled standard peptide for purified HLA-A*0301, gel filtration
[5] = target: HLA-A*1101 (human); test: inhibition of 125I-labeled standard peptide binding to purified HLA-A*1101, gel filtration
[6] = target: HLA-A*2402 (human); test: inhibition of 125I-labelled standard peptide binding to purified HLA-A*2402, gel filtration
[7] = target: HLA-A*1101 (human); test: inhibition of binding of a 125I-labelled standard peptide to purified HLA-A*1101, with gel filtration separation
[8] = target: HLA-B*0702 (human); test: competition with 125I-labelled standard peptide for purified HLA, gel filtration; relative binding
[9] = target: HLA-B*3501 (human); test: as above
[10] = target: HLA-B*5101 (human); test: as above
[11] = target: HLA-B*5301 (human); test: as above
[12] = target: HLA-A*0101 (human); test: competition with 125I-labelled standard peptide for purified HLA-A*0101, bound and free separated by gel filtration
[13] = target: HLA-A*1101 (human); test: competition with 125I-labelled standard probe peptide for purified HLA-A*1101, gel filtration
[14] = target: HLA-A*0301 (human); test: competition of unlabeled peptide against 125I-labeled standard probe peptide for purified HLA-A*0301, gel filtration
[15] = target: HLA-A*0301 (human)
[16] = target: HLA-A*1101 (human)
[17] = target: HLA-A*3101 (human)
[18] = target: HLA-A*3301 (human)
[19] = target: HLA-A*6801 (human)
[20] = target: HLA-A*0301 (human); remark: listed apart in the source
[21] = target: HLA-A*0201 (human); test: competition with 125I-labelled standard peptide on purified HLA, gel filtration; details: remark: other sources report otherwise
[22] = target: HLA-A*0203 (human); test: as above; details: remark: other sources report otherwise
[23] = target: HLA-A*0206 (human); test: as above; details: remark: other sources report otherwise
[24] = target: HLA-A*0301 (human); test: competition with a 125I-labelled standard peptide for purified HLA-A*0301, gel filtration; value relative to the standard peptide
[25] = target: HLA-A*0201 (purified HLA class I molecule) (human); test: competition with 125I-labeled standard peptide for purified HLA-A*0201, gel filtration; ratio to the standard peptide
[26] = target: HLA-A*1101 (human); test: competition with 125I-radiolabeled standard probe peptide for purified HLA-A*1101, gel filtration
[27] = target: HLA-A*0301 (human); test: competition against a 125I-labeled standard probe peptide for purified HLA-A*0301, gel filtration; relative binding
[28] = target: HLA-A*0201 (human); test: competition with a 125I-labelled probe peptide for purified HLA-A*0201, gel filtration
[29] = target: HLA-A*1101 (human); test: competition binding assay; purified HLA-A*1101, unlabeled peptide against 125I-labeled probe peptide, gel filtration
[30] = target: HLA-A*0201 (purified HLA class I molecule) (human); test: competition assay: unlabeled peptide inhibits binding of a 125I-labeled standard probe peptide to purified HLA-A*0201, gel filtration read-out
[31] = target: HLA-A*0301 (human); test: competition of unlabeled peptide with 125I-labeled standard probe peptide for purified HLA-A*0301, gel filtration
[32] = target: HLA-A*0301 (human); test: competition with 125I-labelled probe peptide for purified HLA, gel filtration; details: scale: ratio
[33] = target: HLA-A*1101 (human); test: as above; details: scale: ratio
[34] = target: HLA-A*0301 (human); test: competition with 125I-labeled standard peptide for purified HLA-A*0301, gel filtration
[35] = target: HLA-A*1101 (human); test: competition with 125I-labeled standard peptide for purified HLA-A*1101, gel filtration; details: scale: ratio
[36] = target: purified HLA-A*0201 molecules (human); test: competition with 125I-labelled standard probe peptide for purified HLA-A*0201; bound and free peptide separated by gel filtration
[37] = target: HLA-A*1101 (human); test: competition with a 125I-labeled standard probe peptide for purified HLA-A*1101, gel filtration
[38] = target: HLA-A*0301 (human); test: competition with 125I-labeled standard probe peptide for purified HLA, gel filtration
[39] = target: HLA-A*1101 (human); test: as above
[40] = target: HLA-A*1101 (human); test: competition against a 125I-labelled standard probe peptide for purified HLA-A*1101, bound and free separated by gel filtration; value relative to the standard peptide

## SLACSWGMV (modifications not checked) [HPV31 E1 peptide … (position 246, 9 amino acids)]
[1]
  relative binding ratio (IC50 of standard peptide / IC50 of test peptide): 0.082

## KISEYRHYCY (modifications not checked) [HPV16 E6 79 …]
[2]
  binding affinity ratio (IC50 of standard peptide / IC50 of test peptide): 0.009

## LLTTNIHPA (modifications not checked) [HPV18 E1 peptide … (position 570, 9 amino acids)]
[3]
  relative binding ratio (IC50 of standard peptide / IC50 of test peptide): 0.18

## GDTPEWIQR (modifications not checked) [HPV16 E1 334 …]
[4]
  binding affinity ratio (IC50 of standard peptide / IC50 of test peptide) (ratio to standard peptide): 0.0008
[5]
  relative binding ratio (IC50 of standard peptide / IC50 of test peptide): 0.0002

## CMCCKCEARI (modifications not checked) [… (HPV18 E7, position 63, 10 amino acids)]
[6]
  relative binding ratio (IC50 of standard peptide / IC50 of test peptide): 0.0001

## YNIVTFCCK (modifications not checked) [HPV16 E7 position 52 9-mer peptide … (SEQ ID NO: 40241)]
[7]
  relative binding ratio (IC50 of standard peptide / IC50 of test peptide): 0.0022

## HYSDSVYGDTL (modifications not checked) [… (HPV18 E6, position 80, 11 amino acids)]
[6]
  relative binding ratio (IC50 of standard peptide / IC50 of test peptide): 0.0069

## SPRLQEISL (modifications not checked) [HPV45 E1 110 … (B07 supermotif peptide, 9 amino acids)]
[8]
  binding affinity ratio (IC50 of standard peptide / IC50 of test peptide): 0.62
[9]
  binding affinity ratio (IC50 of standard peptide / IC50 of test peptide): 0.0008
[10]
  binding affinity ratio (IC50 of standard peptide / IC50 of test peptide): 0.0005
[11]
  binding affinity ratio (IC50 of standard peptide / IC50 of test peptide): 0.0002

## ELRHYSDSVY (modifications not checked) [HPV18 E6 77 peptide …]
[12]
  relative binding ratio (IC50 of the standard peptide / IC50 of the test peptide) (ratio to standard peptide): 0.0037

## ISEYRHYCY (modifications not checked) [HPV16 E6 80 …]
[2]; remark: other sources report otherwise
  binding affinity ratio (IC50 of standard peptide / IC50 of test peptide): 0.31

## LCPEEKQRH (modifications not checked) [HPV31 E6 peptide … (position 110, 9 amino acids)]
[13]
  relative binding ratio (IC50 of standard peptide / IC50 of test peptide) (ratio to standard peptide): 0.0001
[14]
  relative binding ratio (IC50 of standard peptide / IC50 of test peptide) (ratio to standard peptide): 0.0003

## CATMCRHYK (modifications not checked) [HPV16 E1 peptide … (position 405, 9 amino acids)]
[15]
  binding affinity ratio (IC50 of standard peptide / IC50 of test peptide): 0.0012
[16]
  binding affinity ratio (IC50 of standard peptide / IC50 of test peptide): 0.0098
[17]
  binding affinity ratio (IC50 of standard peptide / IC50 of test peptide): 0.0077
[18]
  binding affinity ratio (IC50 of standard peptide / IC50 of test peptide): 0.01
[19]
  binding affinity ratio (IC50 of standard peptide / IC50 of test peptide): 0.0056
[20]
  relative binding ratio (IC50 of standard peptide / IC50 of test peptide) (ratio to standard peptide): 0.0012

## GMVVLLLVR (modifications not checked) [HPV16 E1 272 …]
[4]
  binding affinity ratio (IC50 of standard peptide / IC50 of test peptide) (ratio to standard peptide): 0.0036
[5]
  relative binding ratio (IC50 of standard peptide / IC50 of test peptide): 0.0082

## TLGIVCPI (modifications not checked) [HPV16 E7 86 TLGIVCPI]
[21]
  binding affinity ratio (IC50 of standard peptide / IC50 of test peptide): 0.15
[22]
  binding affinity ratio (IC50 of standard peptide / IC50 of test peptide): 0.0005
[23]
  binding affinity ratio (IC50 of standard peptide / IC50 of test peptide): 0.54

## PLCPEEKQR (modifications not checked) [HPV31 E6 peptide … (position 109, 9 amino acids)]
[13]
  relative binding ratio (IC50 of standard peptide / IC50 of test peptide) (ratio to standard peptide): 0.0005
[14]
  relative binding ratio (IC50 of standard peptide / IC50 of test peptide) (ratio to standard peptide): 0.0002

## GDTPEWIQR (modifications not checked) [HPV45 E1 peptide … (position 327, 9 amino acids)]
[24]
  relative binding ratio (IC50 of standard peptide / IC50 of test peptide): 0.0008

## CLDCKWGVLI (modifications not checked) [HPV45 E1 peptide … (position 259, 10 amino acids)]
[25]
  relative binding ratio (IC50 of standard peptide / IC50 of test peptide): 0.0002

## YMLDLQPETT (modifications not checked) [HPV16 E7 11 …]
[21]
  binding affinity ratio (IC50 of standard peptide / IC50 of test peptide): 0.15
[22]
  binding affinity ratio (IC50 of standard peptide / IC50 of test peptide): 0.0001
[23]
  binding affinity ratio (IC50 of standard peptide / IC50 of test peptide): 1.7

## WTYFDTYMR (modifications not checked) [HPV18 E1 peptide … (position 536, 9 amino acids)]
[26]
  relative binding ratio (IC50 of standard peptide / IC50 of test peptide): 0.012
[27]
  binding affinity ratio (IC50 of the standard peptide / IC50 of the test peptide): 0.0005

## AIFGVNPTI (modifications not checked) [HPV18 E1 246 peptide … (SEQ ID NO: 3274)]
[28]
  relative binding ratio (IC50 of standard peptide / IC50 of test peptide) (ratio to standard peptide): 0.0021

## GVLILALLR (modifications not checked) [HPV45 E1 peptide … (position 265, 9 amino acids)]
[24]
  relative binding ratio (IC50 of standard peptide / IC50 of test peptide): 0.0058

## KAAMLAKFK (modifications not checked) [HPV16 E1 204 …]
[4]
  binding affinity ratio (IC50 of standard peptide / IC50 of test peptide) (ratio to standard peptide): 0.11
[5]
  relative binding ratio (IC50 of standard peptide / IC50 of test peptide): 0.18

## EGTGCNGWFY (modifications not checked) [HPV31 E1 position 10 peptide … (SEQ ID NO: 41699)]
[29]
  binding affinity ratio (relative to the standard peptide): 0.0002

## QLKCPPLLI (modifications not checked) [HPV31 E1 peptide … (position 536, 9 amino acids)]
[1]
  relative binding ratio (IC50 of standard peptide / IC50 of test peptide): 0.0049

## LLITSNINA (modifications not checked) [HPV31 E1 peptide … (position 542, 9 amino acids)]
[30]
  relative binding ratio (IC50 of standard peptide / IC50 of test peptide): 0.0022

## LILALLRYK (modifications not checked) [HPV45 E1 267-275 peptide … (SEQ ID NO: 37427)]
[31]
  relative binding ratio (IC50 of the standard peptide / IC50 of the test peptide): 0.27

## VVLLLVRYK (modifications not checked) [HPV16 E1 peptide … (position 274, 9 amino acids)]
[32]
  binding affinity ratio (relative to standard peptide): 1
[33]
  binding affinity ratio (relative to standard peptide): 0.36
[34]
  relative binding ratio (IC50 of standard peptide / IC50 of test peptide): 1
[35]
  relative binding ratio (A*1101): 0.36

## MVQWAYDNDI (modifications not checked) [HPV16 E1 360 peptide …]
[36]
  binding affinity ratio (IC50 of the standard peptide / IC50 of the test peptide): 0.0001

## AFRDLCIVY (modifications not checked) [HPV16 E6 peptide … (position 53, 9 amino acids; SEQ ID NO: 40120)]
[37]
  relative binding ratio (IC50 of standard peptide / IC50 of test peptide): 0.0001

## YVQAIVDKK (modifications not checked) [HPV18 E1 peptide … (position 19, 9 amino acids)]
[38]
  relative binding ratio (IC50 of standard peptide / IC50 of test peptide) (ratio to standard peptide): 0.0005
[39]
  relative binding ratio (IC50 of standard peptide / IC50 of test peptide) (ratio to standard peptide): 0.029
[26]
  relative binding ratio (IC50 of standard peptide / IC50 of test peptide): 0.029
[27]
  binding affinity ratio (IC50 of the standard peptide / IC50 of the test peptide): 0.0005

## QVLHVLKRK (modifications not checked) [HPV18 E1 peptide … (position 80, 9 amino acids)]
[40]
  relative binding ratio (IC50 of standard peptide / IC50 of test peptide): 0.002

## WLQPLADAK (modifications not checked) [HPV16 E1 peptide … (position 509, 9 amino acids)]
[32]
  binding affinity ratio (relative to standard peptide): 0.0005
[33]
  binding affinity ratio (relative to standard peptide): 0.0002
[34]
  relative binding ratio (IC50 of standard peptide / IC50 of test peptide): 0.0005
[35]
  relative binding ratio (A*1101): 0.0002
